Measured values taken from patent CN111690058A (SANYOU BIO INC; SHANGHAI ZJ BIO TECH CO LTD, dated 2020).

What was measured:
[1] = target: T1, S蛋白RBD-His (319Arg-532Asn) (2019-nCoV (SARS-CoV-2), UniProt P0DTC2 319-532)
[2] = target: T1, S蛋白RBD-His (319Arg-532Asn); assay: BLI (Fortebio), RBD-His on Anti-Penta-HIS sensor, antibody in solution

B1: 候选抗体P16-A3 (全长人IgG1, κ轻链) (antibody, V domains shown)
VH: QVQLVESGGGVVQPGRSLRLSCAASGFTFSSYGMHWVRQAPGKGLEWVAVISYDGSNKYYADSVKGRFTISRDNSKNTLYLQMNSLRAEDTAVYYCARAYSSSWLLQSFYYYGMDVWGQGTTVTVSS
VL: NIQLTQSPVSLSASVGDRVTLTCRASQGIGYSLVWYQKKPGTAPKLLIFDASTLQSGVPSRFSGSGSGTDFTLTISSLQPEDSATYYCQQVIHYPLTFGGGTKVEIK
B1 was tested. Which IC50 [1] did it give?
The IC50 was 7.7 nM.

And the Kd [2]?
Its Kd is 0.415 nM.

What about the koff [2] of the same binder?
Its koff is 7.17e-05 s⁻¹.

What about the kon [2] of the same binder?
Its kon is 173000 M⁻¹ s⁻¹.
